Target: soluble form of human TNFα (aa 77–233), wild-type (human)
Assay: crystal structure; purified TNFα and certolizumab Fab mixed in a 1:1 molar ratio, complex isolated by size exclusion chromatography (20 mM Tris pH 8.0, 300 mM NaCl); hanging-drop crystals at 20 °C; 2.89 Å, three copies in the asymmetric unit

In the case of “soluble form of human TNFα (aa 77–233), wild-type (ligand)”, the stoichiometry N is reported as 3.

Reference: article PMC5297857
